Drawing on the supplement of paper PMC10567573, this text covers protein stability index for 72 sequences.

This series is described as follows: protein stability index of a GFP-peptide fusion (GPS, HEK-293T) (PSI 1-6); higher = more stable.
The mark [1] stands for this setting: treatment: DMSO, c terminus: a fixed tail appended.
The mark [2] stands for this setting: treatment: MLN4924 1 uM, 8 h, c terminus: a fixed tail appended.

± gives the standard deviation.
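Further: 24-mer peptide tiles fused after GFP, lentivirally expressed, FACS-sorted into six equal bins by GFP/DsRed ratio, decoded by Illumina sequencing, PSI is the read-weighted mean bin number.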

As for FFHLSALKGYLYAVGGRNAAGELP [KLHL13], the protein stability index is, setting by setting: under setting [1], 2.56 ± 0.62; under setting [2], 2.27 ± 0.26. Turning to PGNQAEHGAVTVGGTSVGSLGVPG [ZBTB22], the protein stability index by setting is: under setting [1], 4.89 ± 0.25; under setting [2], 4.75 ± 0.26. On to SPESGLEVRDRMLLKITIPNAFIG [DVL3], for which the protein stability index is 2.3 ± 0.15 under setting [1] and 2.24 ± 0.34 under setting [2]. Consider TFLSRILTGLNYEAPKYHIPYWVA [NSDHL], for which the protein stability index runs as follows: under setting [1], 2.77 ± 0.67; under setting [2], 3 ± 0.63.

On to DVCISILHPPVDDPQSGELPSERW [CDC34], for which the protein stability index reads like this: under setting [1], 3.9 ± 0.28; under setting [2], 4.01 ± 0.24. With LCKNCFYLSNARPDNWFCYPCIPN [ZMYND11], the protein stability index by setting is: under setting [1], 2.2 ± 0.29; under setting [2], 2.23 ± 0.053.

On to VFDLRMMVANILNNEAFMNQEITK [RHOBTB2], for which the protein stability index runs as follows: under setting [1], 2.72 ± 0.47; under setting [2], 2.43 ± 0.46.

As for FLNDRLANYLEKVRQLERENAELE [KRT36], the protein stability index was 3.21 ± 0.25 under setting [1] and 3.54 ± 0.49 under setting [2]. As for HAAHVVCRELGYVEAKSWTASSSY [LOXL2], the protein stability index is, setting by setting: under setting [1], 2.31 ± 0.29; under setting [2], 2.28 ± 0.17. For YSVARQFNLTPPICEQAEYHMFQR [KCNAB2], in that order: 2.64 ± 0.23 and 2.93 ± 0.29. Take MMVRQMKEDAKGKSEEELAECFRI [TNNC2]: the protein stability index under setting [2] came out at 4.3 ± 0.52. With AAIDNGLAFPLKHPDSWRAYPFYW [PI4K2A], the protein stability index worked out at 2.27 ± 0.18 under setting [1] and 2.26 ± 0.2 under setting [2]. Take TARVIIPLLKDEGFAVKALWGRTQ [GFOD1]: the protein stability index was determined as 2.08 ± 0.32 under setting [1] and 2.27 ± 0.35 under setting [2].

For MDAAPGVDLSRILNEMRDQYEKMA [KRT17], the protein stability index is 3.82 ± 0.18 under setting [1] and 3.8 ± 0.17 under setting [2]. Consider QCSQRMLSFSDALLSIIATVMILP [TMEM175], for which the protein stability index by setting is: under setting [1], 3.25 ± 0.4; under setting [2], 3.33 ± 0.3. For DKDKSDDRMARPSGRSGHNTRGTG [CSNK1G3], in that order: 5.6 ± 0.29 and 5.43 ± 0.52. The sequence FQVVKDAVLDCLLDFLPKDVKKEK [TENT5D] gave a protein stability index under setting [1] of 5.16 ± 0.18 and a protein stability index under setting [2] of 4.95 ± 0.23. QARKRQEEREKEAAEQAERSQSSI [SMARCE1] registered a protein stability index under setting [1] of 5.26 ± 0.71 and a protein stability index under setting [2] of 5.702 ± 0.038. Take RTSLQYGIMCLKRLNYDRKELEKR [PPFIA4]: the protein stability index was 2.88 ± 0.45 under setting [1] and 2.83 ± 0.29 under setting [2]. QLAAVHLSKSRTDYQPTQAGRLMR [RNF180]: the protein stability index reads like this: under setting [1], 3.5 ± 0.18; under setting [2], 3.52 ± 0.26. On to ALVAPLLRLENNHCHIEESEHVLK [VPS39], for which the protein stability index runs as follows: under setting [1], 3.26 ± 0.11; under setting [2], 3.32 ± 0.2. Turning to FHGKYSTINPLWHIRHLGWNPDAR [GLT8D2], the protein stability index is, setting by setting: under setting [1], 2.57 ± 0.39; under setting [2], 2.31 ± 0.21. On to VLCEAAFPKKLAFAYLEDLHSEFD [SEC22B], for which the protein stability index runs as follows: under setting [1], 2.14 ± 0.28; under setting [2], 2.31 ± 0.12. In the same order, the values of LSEDDKLQGAASHVPEGFDPTGPA [EHMT1] are 5.333 ± 0.053 and 5.4 ± 0.073. Take LEDSTMGSVADTVARVLRGCLENM [PLK2]: the protein stability index reads like this: under setting [1], 2.79 ± 0.32; under setting [2], 2.96 ± 0.38. Consider PVYVSCIAQDTCTTTDHSSNPGPV [SPAG8], for which the protein stability index by setting is: under setting [1], 3.75 ± 0.39; under setting [2], 3.9 ± 0.33. For the sequence ICARACNTTLTQYQLLATHVPTVW [RHOBTB1], the protein stability index was 2.52 ± 0.49 under setting [1] and 2.43 ± 0.7 under setting [2]. As to EKGRALQIRDWRGGRLENQKPRGL [ZSWIM9], the protein stability index under setting [1] was 4 ± 0.34 and the protein stability index under setting [2] is 4.2 ± 0.35. Sequence PKDLDPSLCTHLIYAFAGMTNHQL [CHIT1] yielded a protein stability index under setting [1] of 2.75 ± 0.44 and a protein stability index under setting [2] of 2.46 ± 0.6. QSTVKCLTVLQRLDVWLSGGNDLC [WDR41] registered a protein stability index under setting [1] of 2.6 ± 0.63 and a protein stability index under setting [2] of 2.32 ± 0.4. For the sequence HQQVEEALSFTLLGSAPLDQEPLL [NEK8], the protein stability index reads like this: under setting [1], 3.69 ± 0.25; under setting [2], 3.75 ± 0.12. Take MNIIELEIPDQNIDVEALQVAFGS [GMCL1]: the protein stability index reads like this: under setting [1], 2.86 ± 0.31; under setting [2], 2.73 ± 0.072. In the case of PSALFSKIRRGQFCIPEHISPKAR [TRIB1], the protein stability index turned out to be 2.81 ± 0.37 under setting [1] and 3.06 ± 0.47 under setting [2]. In the same order, the values of VSSVFLLTLSIAFICCAQVKVSHL [PHTF1] are 3.57 ± 0.43 and 3.02 ± 0.58.

MGKLLQQPNTYADFEFLAFWQTQY [PKD2L1] gave a protein stability index under setting [1] of 2.21 ± 0.56 and a protein stability index under setting [2] of 2.27 ± 0.23. In the same order, the values of ALLQAMKDLDGMDADILGLKKSNS [FBF1] are 2.83 ± 0.78 and 2.82 ± 0.29. With QKVVVTTPLHRDKTPLHQKHAAFV [MYBL2], the protein stability index was determined as 3 ± 0.2 under setting [1] and 3.14 ± 0.32 under setting [2]. EQVAQLKQKVMTHVSNGCQLLLGV [JUNB] gave a protein stability index under setting [1] of 2.33 ± 0.27 and a protein stability index under setting [2] of 2.12 ± 0.13. In turn, SPPVDLFATASAAVPVSTSKPSSD [SNAP91] yielded a protein stability index under setting [1] of 5.31 ± 0.12 and a protein stability index under setting [2] of 5.33 ± 0.17. Turning to IPSWQIRTVKLIRYVSNWDFFIVG [PKD2L1], the protein stability index reads like this: under setting [1], 2.79 ± 0.52; under setting [2], 2.93 ± 0.7.

Consider LSSAVWPGGETEALTRLERHLERK [CRY1], for which the protein stability index is 4.44 ± 0.22 under setting [1] and 4.27 ± 0.061 under setting [2].

With GAPEDDEEDDGRGRGLLRWDSFSA [DENND6A], the protein stability index under setting [1] was determined as 4.92 ± 0.078 and the protein stability index under setting [2] stood at 4.98 ± 0.19. Turning to PSLQPSRKLSPTEPKNYGSYSTQA [SCAMP3], the protein stability index by setting is: under setting [1], 4.4 ± 0.35; under setting [2], 4.5 ± 0.22. As to HQEQVEDLTASHDAALLEMENNHT [MTUS2], the protein stability index under setting [1] is 5.51 ± 0.2 and the protein stability index under setting [2] was found to be 5.4 ± 0.3. For LVVILLSIVAVGFHIFRTLEVNRL [PKD2L1], in that order: 3.44 ± 0.88 and 3.12 ± 0.23. Regarding GEEGAPGKWQQQGDLQDTKENREE [CHGB], the protein stability index stood at 5.57 ± 0.31 under setting [1] and 5.52 ± 0.28 under setting [2]. As to DYKDRSVFGVPLTVNVQRTGQPLP [DLC1], the protein stability index under setting [1] was 3.62 ± 0.069 and the protein stability index under setting [2] was 3.52 ± 0.17. IRERPAAIPIEIKSIDDTSNFDDF [STK38L] yielded a protein stability index under setting [1] of 4.31 ± 0.3 and a protein stability index under setting [2] of 4.92 ± 0.19. On to LSEYVSRMKETQKSIYYITGESKE [HSP90AB1], for which the protein stability index under setting [1] is 3.69 ± 0.24 and the protein stability index under setting [2] worked out at 3.67 ± 0.2.

Consider STSFLPELSSVHPPHYFFTYRIRI [FBXO3], for which the protein stability index runs as follows: under setting [1], 2.66 ± 0.33; under setting [2], 2.85 ± 0.48.

As for YQLGEEAMEKFREDEGFLREEERP [KCNA3], the protein stability index turned out to be 5.13 ± 0.2 under setting [1] and 5.27 ± 0.24 under setting [2].

Consider DQVSACIPVFRLARRRKKILFYCH [ALG2], for which the protein stability index worked out at 2.22 ± 0.47 under setting [1] and 2.24 ± 0.075 under setting [2]. With VTSFPDADAFHHQVHDDDLLSSSE [EMD], the protein stability index was 5.38 ± 0.33 under setting [1] and 5.33 ± 0.21 under setting [2]. Take DRYSEGIKHVLQTFGPIPEFSRAT [CRYL1]: the protein stability index runs as follows: under setting [1], 3.06 ± 0.58; under setting [2], 3.36 ± 0.3. For VKIESVKLDFKEKAQAKVGSLDNA [MAP2], in that order: 3.5 ± 0.24 and 3.52 ± 0.24.

For SLGLSHSTDIGALMYPSYTFSGDV [MMP1], the protein stability index reads like this: under setting [1], 3.15 ± 0.4; under setting [2], 3.19 ± 0.46. For IPKCSKIVIDFDSINSRPSQKLQ [DCTD], the protein stability index is, setting by setting: (treatment: DMSO, c terminus: native) 3.14 ± 0.31; (treatment: MLN4924 1 uM, 8 h, c terminus: native) 3.38 ± 0.32. Take GLQAPPPDDVDYATNPHVKPPYSY [FOXJ1]: the protein stability index is, setting by setting: under setting [1], 4.42 ± 0.29; under setting [2], 4.46 ± 0.19. With GQDKQFAWHCSESGQRLGGYRTSA [WDFY2], the protein stability index is, setting by setting: under setting [1], 3.51 ± 0.24; under setting [2], 3.24 ± 0.28. SASSDEPYARIQQSRRQCHAEEDQ [SMIM2] had a protein stability index under setting [1] of 5.49 ± 0.17 and a protein stability index under setting [2] of 5.63 ± 0.2.

As to GTQHMFEDDPSVLYVSLHRYDHGT [HDAC6], the protein stability index is 2.34 ± 0.37 under setting [1] and 2.5 ± 0.45 under setting [2]. On to IQIAFEEVPQLPPRASISHVTCVD [C2CD2L], for which the protein stability index reads like this: under setting [1], 2.39 ± 0.16; under setting [2], 2.46 ± 0.23.

Turning to SGVSDYDYLDLDKMSLYSEADSGY [TRIM9], the protein stability index under setting [1] is 4.14 ± 0.19 and the protein stability index under setting [2] was determined as 3.76 ± 0.46. With CERVVINVSGLRFETQMKTLAQFP [KCNA4], the protein stability index came out at 2.55 ± 0.42 under setting [1] and 2.51 ± 0.77 under setting [2]. With SISDVKFSHSGRYIMTRDYLTVKV [PPP2R2B], the protein stability index is, setting by setting: under setting [1], 2.37 ± 0.47; under setting [2], 2.52 ± 0.57.

On to ITPTKKIELDRTIMPDGTIVTTVT [C2CD2L], for which the protein stability index worked out at 2.67 ± 0.25 under setting [1] and 2.79 ± 0.22 under setting [2]. In the case of RWFRSVDWEAVPQRKLKPPIVPKI [PRKX], the protein stability index by setting is: under setting [1], 2.33 ± 0.26; under setting [2], 2.44 ± 0.29.

Turning to SAVVQLYAADRNCMWSKKCSGVAC [WASL], the protein stability index worked out at 2.36 ± 0.23 under setting [1] and 2.41 ± 0.42 under setting [2].

KSLDNMPNDEHWKALSRKSTSFRV [FBXO33] displayed a protein stability index under setting [1] of 3.4 ± 0.11 and a protein stability index under setting [2] of 3.56 ± 0.21. For PSSPLRLGSYKAQKTSRSSSIPCS [PPEF2], in that order: 3.86 ± 0.24 and 3.95 ± 0.21. Consider ALVCQVDNDHKEAVGKMGFVVTML [ZER1], for which the protein stability index stood at 2.29 ± 0.29 under setting [1] and 2.37 ± 0.5 under setting [2]. Sequence SLRQKQPERLCSGPGIVGNVLVDP [GMPPB] displayed a protein stability index under setting [1] of 3.65 ± 0.2 and a protein stability index under setting [2] of 3.46 ± 0.15.
